Laboratory results: PMC2763025 (Insect biochemistry and molecular biology, 2009)

Target: Cry11Aa toxin, trypsin-activated (Bacillus thuringiensis subsp. …, UniProt P21256 1-643)
Experiment: ELISA

B1: truncated AaeAPN1 fragment AaeAPN1t (amino acids 525-778) (domain or fragment)
chain: RTYETGDIIISQERFISDRKVPNTNVWMIPYNYVHQSKADFDDLSTFSWLSTKAARINTEVPANEWIIFNKQQVGYYRVNYDANNWELITNALINNLSSIDRLNRAQLIDDAYWLARSGRLDIEVLMKLLTYLKDETEYAPWTAANNVLSYFNGKLRGTPAYKDFTTMVDHLIKKVYKTLDVTAVSDTEPLLHKYLKQTISTWACLIGNEDCLKRTKEALQKEVTEGIPVHPDVATVVYCNGLRTADVAEYQYL
- Kd: 8.5 nM
